Data on five molecules can be found in patent US20160115202A1 (OHIO STATE INNOVATION FOUNDATION, published 2016).

Experiment [1] has as its target GST-tagged K-Ras G12V protein (Example 4) (UniProt P01116). Description: FA, binding in solution.
The target in experiment [2] is T1, ybbR-tagged extracellular domain of human TNFα (aa 77-233) (human, UniProt P01375 77-233, biotin or Texas Red attached at the ybbR tag by Sfp where labeled TNFα was used).
T1 construct: range 77-233; Expressed in E. coli from pET-22b(+)-ybbR; also called TNF-alpha; tumor necrosis factor-alpha
Description: competition ELISA: 0.5 nM HRP-TNFR1 on immobilized biotinylated TNFα. On the technique in general: ELISA stands for enzyme-linked immunosorbent assay.
Description: A Nunc 96F Maxisorp plate was coated overnight with 100 μL of 5 mg/mL Neutravidin (in 50 mM Na₂CO₃, pH 9.0) at 4° C. The solution was removed and each well was washed with 100 μL of the blocking buffer containing 3% BSA. […] The wells were quickly washed twice with a washing buffer (0.01% Tween 20 in PBS buffer). […] After incubation at 4° C. for 1.5 h, the plate was washed twice with the washing buffer and incubated with 100 μL of 3,3′,5,5′-tetramethylbenzidine (Sigma) for 30 min. The reaction was quenched by the addition of 100 μL of 1 M phosphoric acid. The absorbance at 450 nm was measured and plotted against the peptide concentration and the IC₅₀ value was obtained by curve fitting.

Experiment [3] has as its target GST-tagged K-Ras G12V protein (Example 4) (UniProt P01116). Nature of the experiment: FA, binding in solution. The source holds these as a separate data set.
Experiment [4] deals with T1, ybbR-tagged extracellular domain of …. Nature of the experiment: FA, resynthesized FITC-labeled peptide titrated with TNFα.
The target is the same in experiment [5]. Description: FA competition; competitor FITC-labeled Necrostatin C1 (100 nM), TNFα 1600 nM.
Experiment [6] has the same target. Description: FA competition; competitor FITC-labeled Necrostatin C2 (100 nM), TNFα 1600 nM.

What is called Kd is the free concentration of one partner at which half of the binding sites on the other are occupied at equilibrium, for simple one-to-one binding. A higher Kd goes with lower affinity. The IC50 is the concentration that gives 50% inhibition.

Read-outs that look alike come from different tables or passages of the source. Bridges are numbered along the chain shown (N, C = ends). Primed or numbered codes have the meaning given here. Where no end group is shown, it is not given here. [ ]: non-standard residue; d: D form. The star is where a group is joined. trimesoyl = trimesic acid scaffold joined by three amide bonds (bicycle); trimesoyl″ = trimesic acid scaffold joined by three amide bonds; FITC = O=C1OC2(c3ccc(O)cc3Oc3cc(O)ccc32)c2ccc(NC(=S)*)cc21; Phg = N[C@H](C(=O)O)c1ccccc1; Nle = CCCC[C@H](N)C(=O)O; Pra = C#CC[C@H](N)C(=O)O; dNal = D-naphthylalanine; Dap = NC[C@H](N)C(=O)O

T1 sequence (P01375 other isoform, or with tags, fused parts or gaps limits assumed): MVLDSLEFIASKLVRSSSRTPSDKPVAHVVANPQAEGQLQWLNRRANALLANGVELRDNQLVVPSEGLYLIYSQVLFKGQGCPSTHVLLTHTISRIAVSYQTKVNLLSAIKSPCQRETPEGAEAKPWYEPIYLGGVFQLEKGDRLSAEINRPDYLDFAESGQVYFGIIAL

In experiment [1], “peptide 13, bicyclo(Ala-Orn-Phg-Arg-d-Asn-Pra-Ile-d-Phe-K-FNalR4-Dap)-K” yielded a dissociation constant Kd of 6000 nM.

B1: Necrostatin C1 (label not stated) (peptide)
peptide: [Phg]Y[dA]KY[dF]G[dK]H[Dap]
modifications: linker (positions not given here) via trimesic acid (trimesoyl); not fully specified (bridges)
notes: As used in the TNFα-TNFR1 ELISA and the MTT assays; also called Nercostatin C1
In experiment [2], B1 showed an IC50 of 3100 nM.

B2: peptide 12, bicyclo(d-Ala-Gln-Phg-Arg-d-Asn-Pra-Ile-Asp-K-FNalR4-Dap)-K (peptide)
peptide: [dA]Q[Phg]R[dN][Pra]IDKF[dNal]RRRR[Dap]K
modifications: linker N-1-9-16 via trimesoyl″; not fully specified (residue 6); also: dye label on C-terminal Lys not given here
B2 had a Kd in experiment [3] of 2000 nM.
[Phg]Y[dA]KY[dF]G[dK]H[Dap]K(FITC) (linker (positions not given here) via trimesoyl; not fully specified (bridges)) [FITC-labeled Necrostatin C1 (resynthesized)]: the Kd in experiment [4] is 450 nM.

B3: Necrostatin C2 (unlabeled) (peptide)
peptide: A[dF]W[dT]QK[Nle][dL]AH[Dap]
modifications: linker (positions not given here) via trimesic acid (trimesoyl); not fully specified (bridges)
notes: also called unlabeled Necrostatin C2
Regarding B3, the IC50 in experiment [5] was about 4000 nM; in experiment [6] it was about 2000 nM.
